Results taken from patent publication US20240132578A1.

Key:
Assay in all cases: cell-based or functional assay
[1] = molecular target: HIV-1 Env of isolate MGRM-F1-022 (pseudovirus) (HIV-1)
[2] = molecular target: HIV-1 94UG103 Env (HIV-1)
HIV-1 JRCSF Env (HIV-1) = HIV-1 JRCSF Env (HIV-1) (UniProt P20871)
[3] = molecular target: HIV-1 MGRM-D-018 Env (HIV-1)
[4] = molecular target: HIV-1 Env of isolate 92UG001 (pseudovirus) (HIV-1)
[5] = molecular target: HIV-1 Env of isolate 92UG046 (pseudovirus) (HIV-1)
[6] = molecular target: HIV-1 Env of isolate 92WR026 (pseudovirus) (HIV-1)
[7] = molecular target: HIV-1 Env of isolate 98CN009 (pseudovirus) (HIV-1)
[8] = molecular target: HIV-1 Env of isolate MGRM-A-011 (subtype A) (HIV-1)
[9] = molecular target: HIV-1 Env of isolate MGRM-D-004 (pseudovirus) (HIV-1)
[10] = molecular target: HIV-1 Env of isolate MGRM-D-011 (pseudovirus) (HIV-1)
[11] = molecular target: HIV-1 Env of isolate MGRM-F1-008 (HIV-1)
[12] = molecular target: HIV-1 Env of isolate MGRM-F1-016 (HIV-1)
[13] = molecular target: HIV-1 Env of isolate MGRM-F1-017 (HIV-1)
[14] = molecular target: HIV-1 Env of pseudovirus isolate MGRM-C-006 (clade C) (HIV-1)
[15] = molecular target: HIV-1 Env of pseudovirus isolate MGRM-C-017 (clade C) (HIV-1)
[16] = molecular target: HIV-1 Env of pseudovirus isolate MGRM-C-023 (clade C) (HIV-1)
[17] = molecular target: HIV-1 Env of pseudovirus isolate MGRM-C-024 (clade C) (HIV-1)
[18] = molecular target: HIV-1 JR-CSF Env I414A (HIV-1 (isolate JR-CSF)) (UniProt P20871)
[19] = molecular target: HIV-1 JR-CSF Env N396A (HIV-1 (isolate JR-CSF)) (UniProt P20871)
[20] = molecular target: HIV-1 JR-CSF Env T303A (HIV-1 (isolate JR-CSF, clade B)) (UniProt P20871)
[21] = molecular target: HIV-1 Env of isolate 92RW009 (subtype A) (HIV-1)
[22] = molecular target: HIV-1 Env of isolate 94 KE 105 (pseudovirus) (HIV-1)
[23] = molecular target: HIV-1 Env of isolate MGRM-C-017 (subtype C), on pseudovirus (HIV-1)
[24] = molecular target: HIV-1 Env of isolate MGRM-C-019 (subtype C), on pseudovirus (HIV-1)
[25] = molecular target: HIV-1 Env of isolate MGRM-C-022 (subtype C), on pseudovirus (HIV-1)
[26] = molecular target: HIV-1 Env of isolate MGRM-G-025 (subtype G) (HIV-1)
[27] = molecular target: HIV-1 Env of pseudovirus isolate APV-17 (clade B) (HIV-1)

Sequence of 4995_E20 (PGT-142) (antibody) (VH): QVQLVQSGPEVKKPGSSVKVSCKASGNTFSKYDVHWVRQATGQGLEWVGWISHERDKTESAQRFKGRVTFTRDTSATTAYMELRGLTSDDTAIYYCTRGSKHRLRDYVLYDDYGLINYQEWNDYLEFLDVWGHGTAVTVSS
Sequence of 4995_E20 (PGT-142) (antibody) (VL): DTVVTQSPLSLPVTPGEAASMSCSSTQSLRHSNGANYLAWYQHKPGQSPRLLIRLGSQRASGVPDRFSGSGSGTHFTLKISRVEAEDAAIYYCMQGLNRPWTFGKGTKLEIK
Sequence of 4995_P16 (PGT-145) (antibody) (VH): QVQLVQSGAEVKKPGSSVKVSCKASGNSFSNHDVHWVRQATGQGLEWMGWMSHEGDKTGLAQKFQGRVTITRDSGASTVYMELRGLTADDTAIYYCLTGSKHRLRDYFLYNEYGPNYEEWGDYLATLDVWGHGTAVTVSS
Sequence of 4995_P16 (PGT-145) (antibody) (VL): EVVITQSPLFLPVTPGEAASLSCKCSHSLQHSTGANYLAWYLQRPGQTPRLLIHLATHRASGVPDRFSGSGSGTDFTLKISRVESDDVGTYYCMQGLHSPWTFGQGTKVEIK
Sequence of 4993_K13 (PGT-141) (antibody) (VH): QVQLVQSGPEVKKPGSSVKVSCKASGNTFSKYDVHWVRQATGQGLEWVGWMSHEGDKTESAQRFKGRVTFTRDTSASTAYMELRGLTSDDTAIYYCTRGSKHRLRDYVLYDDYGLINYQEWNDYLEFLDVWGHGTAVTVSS

Substance	IC50 (µg/mL), pseudovirus neutralization [4]	IC50 (µg/mL), pseudovirus neutralization [5]	IC50 (µg/mL), pseudovirus neutralization [6]	IC50 (µg/mL), pseudovirus neutralization [7]	IC50, pseudovirus neutralization [8]	IC50 (µg/mL), pseudovirus neutralization [9]	IC50 (µg/mL), pseudovirus neutralization [10]	IC50 (µg/mL), pseudovirus neutralization [11]	IC50 (µg/mL), pseudovirus neutralization [12]	IC50 (µg/mL), pseudovirus neutralization [13]	IC50, pseudovirus neutralization [14]	IC50, pseudovirus neutralization [15]	IC50, pseudovirus neutralization [16]	IC50, pseudovirus neutralization [17]	IC50, pseudovirus neutralization [21]	IC50 (µg/mL), single-round pseudovirus neutralization [6]	IC50 (µg/mL), single-round pseudovirus neutralization [22]	IC50, single-round pseudovirus neutralization [23]	IC50, single-round pseudovirus neutralization [24]	IC50 (µg/mL), pseudovirus neutralization [26]	other results
4838_L06 (PGT-121) (antibody)	–	–	–	–	–	–	–	–	–	–	–	–	–	–	–	–	–	–	–	–	IC50 (µg/mL), pseudovirus neutralization [1]: 0.104 µg/mL
4877_D15 (PGT-122) (antibody)	–	–	–	–	–	–	–	–	–	–	–	–	–	–	–	–	–	–	–	–	IC50, pseudovirus neutralization [2]: 1.46 µg/mL; IC50 (µg/mL), pseudovirus neutralization [1]: 0.277 µg/mL; IC50, pseudovirus neutralization (HIV-1 JRCSF Env (HIV-1)): 0.0727 µg/mL; IC50, pseudovirus neutralization [3]: 0.0115 µg/mL
5114_A19 (PGT-128) (antibody)	> 50 µg/mL	> 50 µg/mL	0.01 µg/mL	0.025 µg/mL	> 50 µg/mL	24.9 µg/mL	0.007 µg/mL	> 50 µg/mL	1.21 µg/mL	11.7 µg/mL	0.014 µg/mL	1.06 µg/mL	0.026 µg/mL	> 50 µg/mL	–	–	–	–	–	–	Fold IC50 increase relative to wild-type (pseudovirus neutralization) [18]: 1.4 fold; Fold IC50 increase relative to wild-type (pseudovirus neutralization) [19]: 0.9 fold; Fold IC50 increase relative to wild-type [20]: > 500 fold
4993_K13 (PGT-141) (antibody)	–	–	–	–	–	–	–	–	–	–	–	–	–	–	0.022 µg/mL	1.78 µg/mL	0.204 µg/mL	4.02 µg/mL	0.008 µg/mL	> 50 µg/mL	IC50, single-round pseudovirus neutralization [25]: 0.381 µg/mL; IC50, pseudovirus neutralization [27]: 0.59 µg/mL
5329_C19 (PGT-136) (antibody)	> 50 µg/mL	> 50 µg/mL	> 50 µg/mL	0.428 µg/mL	> 50 µg/mL	> 50 µg/mL	> 50 µg/mL	> 50 µg/mL	> 50 µg/mL	> 50 µg/mL	> 50 µg/mL	> 50 µg/mL	3.2 µg/mL	> 50 µg/mL	–	–	–	–	–	–	–
4995_P16 (PGT-145) (antibody)	–	–	–	–	–	–	–	–	–	–	–	–	–	–	0.026 µg/mL	1.45 µg/mL	1.32 µg/mL	> 50 µg/mL	0.005 µg/mL	> 50 µg/mL	IC50, single-round pseudovirus neutralization [25]: 0.492 µg/mL; IC50, pseudovirus neutralization [27]: 0.488 µg/mL
PGV04 (antibody)	–	–	–	–	–	–	–	–	–	2.38 µg/mL	–	–	–	–	–	–	–	–	–	1.61 µg/mL	–
5343_B08 (PGT-135) (antibody)	> 50 µg/mL	> 50 µg/mL	0.068 µg/mL	0.071 µg/mL	> 50 µg/mL	> 50 µg/mL	23.5 µg/mL	> 50 µg/mL	> 50 µg/mL	7.79 µg/mL	> 50 µg/mL	> 50 µg/mL	0.051 µg/mL	> 50 µg/mL	–	–	–	–	–	–	Fold IC50 increase relative to wild-type (pseudovirus neutralization) [18]: 1.2 fold; Fold IC50 increase relative to wild-type (pseudovirus neutralization) [19]: 1 fold
4995_E20 (PGT-142) (antibody)	–	–	–	–	–	–	–	–	–	–	–	–	–	–	0.006 µg/mL	1.78 µg/mL	0.19 µg/mL	1.11 µg/mL	0.003 µg/mL	> 50 µg/mL	IC50, single-round pseudovirus neutralization [25]: 0.086 µg/mL; IC50, pseudovirus neutralization [27]: 0.628 µg/mL
